Laboratory results taken from publication PMC3316158.

What was measured:
[1] = molecular target: BRI1 W980 peptide (Arabidopsis); experiment: pull-down
[2] = molecular target: AtCaM6 (Arabidopsis thaliana calmodulin 6), recombinant (Arabidopsis thaliana) (UniProt Q03509); experiment: native gel or EMSA

Row | Substance | retained CaM7 with Ca^2+ relative to without Ca^2+ (densitometry) [1] [fold] | stoichiometry N (mol equivalent of peptide per AtCaM6) [2]
1 | His6–AtCaM7 (Arabidopsis thaliana calmodulin 7) (from UniProt P59220 1-149) (natural protein) | 2.7 | 
2 | Peptide representing the CaM-binding domain of mammalian CaMKII (Ca^2+/CaM-dependent protein kinase II) |  | 1
